Measured values published in patent US20110212084A1 (AstraZeneca / MedImmune, published 2011).

T1: Cynomolgus Cε3-4 FLAG His10 (cynomolgus monkey)
T1 construct: also called cynomolgus IgE Cε3-Cε4 domain (in house HEK-EBNA derived)
T1 chain: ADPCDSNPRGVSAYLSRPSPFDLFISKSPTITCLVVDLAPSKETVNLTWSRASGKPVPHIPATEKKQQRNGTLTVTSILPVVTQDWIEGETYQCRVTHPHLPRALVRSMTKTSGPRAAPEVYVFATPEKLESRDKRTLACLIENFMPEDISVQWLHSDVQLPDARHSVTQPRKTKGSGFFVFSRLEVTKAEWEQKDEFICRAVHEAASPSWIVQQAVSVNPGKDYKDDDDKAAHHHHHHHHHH


Columns and labels:
[1] = target: T2, cynomolgus IgE (recombinant chimaeric D12 variable region / cynomolgus IgE constant region) (cynomolgus monkey (constant region)); test: cell-based or functional assay
[2] = target: human IgEλ (U266 derived) (human, UniProt P01854 1-546); test: cell-based or functional assay
[3] = target: T3, human IgE (source not stated for the assay) (human, UniProt P01854-1 1-428); test: SPR, BIAcore 2000; IgE amine-coupled to CM5 chip, IgG as analyte, bivalent analyte model; geomean
T3 construct: also called purified human IgE; IgE (Calbiochem or U266-derived)
Method: (§1) The binding affinity of purified IgG samples of a representative number of clones to human and cynomolgus IgE was determined by surface plasmon resonance using BIAcore 2000 biosensor (BIAcore AB) essentially as described by Karlsson et al 1991; Journal of Immunological Methods 145 (1-2) 229-240. In brief, purified human or cynomolgus IgE was covalently coupled to the surface of a CM5 sensor chip (BIAcore) using standard amine coupling reagents according to the manufacturer's instructions to provide a surface density of 100 RU. IgG samples prepared in HBS-EP buffer (BIAcore (AB), at a range of concentrations, between 250 nM and 15.6 nM were passed over the sensor chip surface. The surface was regenerated using 10 mM Glycine, pH 1.75 between each injection of antibody. The resulting sensorgrams were evaluated using BIA evaluation 3.1 software and fitted to a bivalent analyte model, to provide relative binding data.

[4] = target: T3, human IgE (source not stated for the …); test: cell-based or functional assay
[5] = target: T1, Cynomolgus Cε3-4 FLAG His10; test: DELFIA epitope competition; competitor vs biotinylated human IgE on immobilised IgG
Method: (§2) Purified IgG were adsorbed onto 96-well Maxisorp microtitre plates (Nunc) in PBS at a concentration which gave a significant signal when biotinylated human IgE was added at approximately its estimated KD for that particular IgG. Excess IgG was washed away with PBS-Tween (0.1% v/v) and the wells were blocked with PBS-Marvel (3% w/v) for 1 h. […] To this series, an equal volume of biotinylated human IgE at a concentration of approximately the KD was added (resulting in a series starting at a ratio of competitor antigen:biotinylated human IgE of approximately 1000:1). These mixtures were then transferred onto the blocked IgG and allowed to equilibrate for 1 h. Unbound antigen was removed by washing with PBS-Tween (0.1% v/v), while the remaining biotinylated human IgE was detected by streptavidin-Europium3+ conjugate (DELFIA® detection, PerkinElmer). Time-resolved fluorescence was measured at 620 nm on an EnVision plate reader (PerkinElmer). Fluorescence data were analysed using either Graphpad Prism or Microsoft Excel software.

[6] = target: T4, human IgE Cε3-Cε4 domain, C-terminally tagged with FLAG His10 (human, UniProt P01854-1 209-428, limits assumed); test: as above
T4 construct: domain: Cε3-Cε4; secreted with murine IgG1 leader from HEK293-EBNA cells; also called human IgE Ce3-4; human IgE Cε3-Cε4 domain (in house HEK-EBNA derived)
Method: as §2

[7] = target: T5, human IgEλ (U266 derived) (human, UniProt P01854 1-546); test: cell-based or functional assay; remark: listed apart in the source
[8] = target: T2, cynomolgus IgE (recombinant chimaeric …); test: SPR, BIAcore 2000; cynomolgus IgE amine-coupled to CM5 chip, IgG as analyte, bivalent analyte model; geomean
Method: as §1

[9] = target: T5, human IgEλ (U266 derived); test: cell-based or functional assay; remark: listed apart in the source
[10] = target: T5, human IgEλ (U266 derived); test: flow cytometry competition; IgG titrated, mixed with IgE (U266, 10 µg/mL), IgE binding to CD23 on IL-4 treated IM9 cells
Method: Some of these optimised antibodies were evaluated for inhibition of the IgE/CD23 interaction using the IM9 binding assay as previously described.
Antibody dilutions (667 nM to 1 nM) were prepared in U-bottomed polypropylene plates (Greiner) and mixed with IgE (U266-derived [Ikeyama et. al. 1986. Molecular Immunology 23 (2); p159-167]) to a final IgE concentration of 10 μg/mL for 30 minutes at room temperature. Cell plates were spun at 2000 rpm for 2 minutes and supernatant was aspirated, leaving the cell pellet intact. Cells were resuspended in 100 μL/well antibody/IgE mix and incubated on ice for 1 hour. Cell plates were centrifuged at 2000 rpm for 2 minutes and antibody/IgE supernatants were aspirated. Cells were washed by resuspending in 200 μL/well of Flow buffer and centrifuging as above.
IgE bound to the cell surface was detected with anti-IgE-phycoerythin (Caltag) diluted 1/30, v/v, 100 μL/well. Assay plates were incubated on ice for 20 minutes in the dark before centrifuging at 2000 rpm for 2 minutes and washing with 2×200 μL of Flow buffer as described above. Cells were resuspended in 100 μL Cell Fix (BD biosciences) and analysed using a FACSCalibur (BD Biosciences) to detect FL2 staining.

T2 sequence (heavy, as listed by the source limits assumed, chain 1 of 2): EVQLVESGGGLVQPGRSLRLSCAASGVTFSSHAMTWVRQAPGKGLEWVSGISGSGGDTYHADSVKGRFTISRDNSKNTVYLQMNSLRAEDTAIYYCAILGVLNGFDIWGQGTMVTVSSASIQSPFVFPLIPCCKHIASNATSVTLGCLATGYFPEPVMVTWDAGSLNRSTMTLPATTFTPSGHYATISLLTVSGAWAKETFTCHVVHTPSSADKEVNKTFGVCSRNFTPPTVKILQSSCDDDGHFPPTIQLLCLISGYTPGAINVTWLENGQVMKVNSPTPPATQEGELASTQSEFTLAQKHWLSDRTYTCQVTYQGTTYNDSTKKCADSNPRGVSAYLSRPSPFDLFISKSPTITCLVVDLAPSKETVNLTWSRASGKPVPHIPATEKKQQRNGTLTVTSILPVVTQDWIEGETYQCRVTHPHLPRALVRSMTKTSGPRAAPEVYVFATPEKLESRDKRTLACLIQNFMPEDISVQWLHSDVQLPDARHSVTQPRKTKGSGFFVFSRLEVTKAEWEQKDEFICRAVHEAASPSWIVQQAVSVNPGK
T2 sequence (light, as listed by the source limits assumed, chain 2 of 2): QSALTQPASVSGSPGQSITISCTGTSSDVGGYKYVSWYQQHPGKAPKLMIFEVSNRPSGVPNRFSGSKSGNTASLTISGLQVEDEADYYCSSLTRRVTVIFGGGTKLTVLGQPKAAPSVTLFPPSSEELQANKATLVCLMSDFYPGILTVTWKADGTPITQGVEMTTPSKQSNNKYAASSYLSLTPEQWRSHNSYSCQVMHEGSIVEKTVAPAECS
T3 sequence (P01854 other isoform, or with tags, fused parts or gaps): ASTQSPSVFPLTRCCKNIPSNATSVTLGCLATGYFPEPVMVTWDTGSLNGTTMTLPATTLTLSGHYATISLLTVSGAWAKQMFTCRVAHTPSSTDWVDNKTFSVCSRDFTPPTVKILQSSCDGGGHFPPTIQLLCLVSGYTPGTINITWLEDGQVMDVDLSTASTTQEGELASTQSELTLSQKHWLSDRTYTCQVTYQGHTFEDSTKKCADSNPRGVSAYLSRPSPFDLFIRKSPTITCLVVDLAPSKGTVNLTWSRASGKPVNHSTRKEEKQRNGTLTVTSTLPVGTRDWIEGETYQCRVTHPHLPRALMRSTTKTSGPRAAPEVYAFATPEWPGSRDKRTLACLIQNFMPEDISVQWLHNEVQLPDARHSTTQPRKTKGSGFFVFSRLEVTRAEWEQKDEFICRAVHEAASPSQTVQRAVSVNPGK
T4 sequence (P01854 other isoform, or with tags, fused parts or gaps limits assumed): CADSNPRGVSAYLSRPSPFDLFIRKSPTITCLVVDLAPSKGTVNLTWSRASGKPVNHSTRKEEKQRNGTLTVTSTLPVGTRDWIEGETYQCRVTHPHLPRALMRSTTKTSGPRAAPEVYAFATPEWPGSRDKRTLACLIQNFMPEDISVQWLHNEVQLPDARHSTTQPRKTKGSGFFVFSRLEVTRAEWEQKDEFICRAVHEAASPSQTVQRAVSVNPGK

Row | Binder | RBL-ER51 calcium signalling IC50 (nM) Geomean, cynomolgus IgE 100 ng/ml [1] | RBL-ER51 calcium signalling IC50 (nM) Geomean, human IgE 25 ng/ml [2] | Kd [3] | also measured
1 | Antibody 26 (IgG) (antibody, V domains shown) VH: EVQLLESGGGLVQPGGSLRLSCAASGLTFSGYAMSWVRQAPGKGLEWVSAISGSGGRTYYADSVKGRFTISRDNSKNMLYLQMNSLRAEDTAVYYCARHIAVAGTRGFDYWGRGTLVTVSS VL: SFVLTQPPSVSVSPGQTASITCSGDKLGDTYASWYRQRSGQSPVLVIYQDDKRPSGIPERFSGSNSGNTATLTIGGTHTMDEADYYCLAWDTRTSGAVFGGGTKLTVL | 17 nM | 1.2 nM |  | 
2 | Antibody 34 (IgG) (antibody, V domains shown) VH: EVQLLESGGGLVQPGGSLRLSCAAPGFTLSSYAMSWVRQAPGKGLEWVSAISGGSGGRTYYADSVKGRFTISRDNSKNTLYLQMNSLRAEDTAVYYCARHIAVAGTRGFDYWGRGTLVTVSS VL: SYVLTQPPSVSASPGQTASITCSGDKLGDTYASWYRQRSGQSPVLVIYQDDKRPPGIPERFSGSNSGNTATLTIRGTHTMDEADYYCLAWDTRTSGAVFGGGTKLSVL | 22 nM | 0.223 nM | 26 nM | 
3 | Antibody 9 (IgG) (antibody, V domains shown) VH: EVQLLESGGGLVQPGGSLRLSCAASGFTFSSYAMSWVRQAPGKGLEWVSAISGGSGGRTYYADSVKGRFTISRDNSKNTLYLQMNSLRAEDTAVYYCARHIAVAGTRGFDYWGRGTLVTVSS VL: SFVLSQPPSVSVSPGQTASITCSGDKLGDTYASWYRQRSGQSPVLVIYQDDKRPSGIPERFSGSNSGNTATLTISGTHTMDEADYYCLAWDTRTSGAVFGGGTKLTVL | 4.5 nM | 0.286 nM | 79 nM | 
4 | Antibody 1 (IgG) (antibody, V domains shown, also called parent antibody) VH: not shown VL: SYVLTQPPSVSVSPGQTASITCSGDKLGDKYASWYRQRSGQSPVLVIYQDDKRPSGIPERFSGSNSGNTATLTISGTHTMDEADYYCLAWDTRTSGAVFGGGTKLTVL |  |  |  | RBL-ER51 calcium signalling IC50 [4]: 267 nM; binding result [5]: no binding; binding result [6]: no binding
5 | Antibody 33GL (germlined IgG) (antibody, V domains shown, germlined IgG; also called Antibody 35 (provisional application)) VH: EVQLLESGGGLVQPGGSLSLSCAAPGFTFSSYAMSWVRQAPGKGLEWVSAISGGSGGRTYYADSVKGRFTISKDNSKNTLYLQMNSLRAEDTAVYYCARHIAVAGTRGFDYWGRGTLVTVSS VL: SYELTQPPSVSVSPGQTASITCSGDKLGDTYASWYQQKPGLSPALVIYQDDKRPSGIPERFSGSNSGNTATLTISGTQAMDEADYYCLAWDTRTSGAVFGGGTKLTVL |  |  | 0.142 nM | RBL-ER51 calcium signalling IC50 (nM) Human IgE Geomean [7]: 0.197 nM; binding result [5]: no binding; binding result [6]: no binding
6 | Antibody 33 (IgG) (antibody, V domains shown) VH: EVQLLESGGGLVQPGGSLSLSCAAPGFTFSSYAMSWVRQAPGKGLEWVSAISGGSGGRTYYADSVKGRFTISKDNSKNTLYLQMNSLRAEDTAVYYCARHIAVAGTRGFDYWGRGTLVTVSS VL: SYVLTQPPSVSVSPGQTASITCSGDKLGDTYASWYRQRSGLSPALVIYQDDKRPSGIPERFSGSNSGNTATLTISGTHTMDEADYYCLAWDTRTSGAVFGGGTKLTVL | 5.1 nM |  | 0.8 nM | Kd [8]: 2.3 nM; RBL-ER51 calcium signalling IC50 (nM) Geomean, human IgE 25 ng/ml [9]: 0.112 nM; IC50 [10]: 83 nM
7 | Antibody 15 (IgG) (antibody, V domains shown) VH: EVQLLESGGGLVQPGGSLRLSCAAPGFTFSSYAMSWVRQAPGKGLEWVSAISGGSGGRTYYADSVKGRFTISRDNSKNTLYLQMNSLRAEDTAVYYCARHIAVAGTRGFDYWGRGTLVTVSS VL: SYVLTQPPSVSVSPGQTASITCSGDKLGDTYASWYRQRSGQSPVLVIYQDDRRPSGIPERFSGSNSGNTATLTISGTHTMDEADYYCLAWDTRTSGAVFGGGTKLTVL | 5.4 nM | 0.341 nM | 0.9 nM | Kd [8]: 7 nM
